{
  "source": "paper PMC3791837",
  "origin": "cited, not measured here",
  "biological_target": "FcγRIIA (Homo sapiens) (UniProt P12318)",
  "sequence (P12318 34-217)": "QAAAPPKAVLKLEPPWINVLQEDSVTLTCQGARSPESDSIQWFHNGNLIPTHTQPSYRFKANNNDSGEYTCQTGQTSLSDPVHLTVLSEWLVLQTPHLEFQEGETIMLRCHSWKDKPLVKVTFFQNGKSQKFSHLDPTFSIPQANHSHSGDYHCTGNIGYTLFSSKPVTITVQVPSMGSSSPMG",
  "assay": "confocal analysis of transfected cells",
  "note": "pKd: −log10 of the molar value.",
  "data": [
    {"substance": "CRP (from UniProt P02741)", "values": [
      {"measurement": "pKd", "result": 5.43}
    ]}
  ]
}
